Changes are numbered by the printed parent chain. Names may count otherwise.
B1: anti-TrkB clone 6B11 (antibody, V domains shown)
VH: QVQLQQSGAGLVKASQTLALTCAISGDSVSSNSAAWNWIRQSPSRGLEWLGRTYYRSKWYNDYAVSVKSRITINPDTSTNQFSLQLNSVTPEDTAVYYCTRGTGDKRAFDYWGQGTLVTVSS
VL: QSVLTQPPSASGTPGQRVTISCSGSSSNIGSYFVSWYQQLPGTAPKLLIYRNDKRPSGVPERFSGSKSGTSASLAISGLQSEDEADYYCAAWDDSLSGRIFGGGTKLTVL
notes: full-length IgG
B2: anti-TrkB clone 2C07 (antibody, V domains shown)
VH: QVQLQQSGGGVVQPGRSLRLSCAASGFTFSNYAMHWVRQAPGKGLEWVAVISYDGSNEYYADSVKGRFTISRDNSRNTLDLQMNSLRAEDTAVYYCARGTNYGMDVWGQGTMVTVSS
VL: LSELTQDPAVSVALGQTVRITCQGDSLRSYYASWYQQKPGQAPVLVIYGKNNRPSGIPDRFSGSDSGKTASLTITGAQAEDEADYYCQSRDTTGNYLLFGGGTKLTVL
notes: full-length IgG
B3: anti-TrkB clone 5C01 (antibody, V domains shown)
VH: QMQLVQSGAEVKKPGESLKISCKGSGYSFTSYWIGWVRQMPGKGLEWLGIIYPGDSDTRYSPSFQGQVTISADKSISTAYLQWSSLKASDTAMYYCARLGQGSGPFDYWGQGTLVTVSS
VL: QSVVTQPPSVSGTPGQRVSISCSGSSSNIGSHSVTWFQQLPGTAPKLLIYGNSQRPSGVPDRFSGSKSGTSASLAISGLQSEDEADYYCASWDDSLNGYVFGTGTKLTVL
notes: full-length IgG
B4: anti-TrkB clone 1E02 (antibody, V domains shown)
VH: QVQLLQSAAEVKKPGESLKISCKGSGYRFTSYWIGWVRQMPGKGLEWVGIIYPDDSDTRYSPSFQGQVTISADTSISTTYLQWSSLKASDTAIYYCASGEVAFDVWGQGTTVTVSS
VL: QSVLTQPPSLSVSPRQTASITCSGDKLGDKFVSWYQQKPGQSPVLVIYQDTKRPSGIPERFSGSNSGNTATLTISGTQAMDEADYYCQAWDSSTGVFGGGTKLTVL
notes: full-length IgG
B5: anti-TrkB clone 2E02 (antibody, V domains shown)
VH: QVQLQQSGPGLVKPSQTLSVTCVISGDSVSSKSAAWHWIRQSPSRGLEWLGRTYYRSKWYSDYGESVKSRVVINADTSNNQISLQLSSVTPEDTAAYYCARGIGSLNFDIWGQGTMVTVSS
VL: QSVLTQPPSASGSPGQSVTISCTGTSGDVGGYNYVSWYQQHPGKAPKLILYEVTKRPSGVPDRFSGSKSGNTASLTVSGLQAEDEADYYCSSYGGPNNLVLFGGGTKVTVL
notes: full-length IgG
B6: anti-TrkB clone 1F01 (antibody, V domains shown)
VH: B5 VH with S15A, V20L, V23D
VL: QSVVTQPASVSGSPGQSITISCTGTSSDIGGYDYVSWYQQHPGKAPKLMIFDVSNRPSGVSNRFSGSKSGNTASLTISGLQADDEADYYCSSYRAGSTLNLLFGGGTKLTVL
notes: full-length IgG
B7: anti-TrkB clone 4G12 (antibody, V domains shown)
VH: EVQLVQSGAEVKKPGESLKISCKGSGYSFTSYWIGWVRQMPGKGLEWMGIIYPGDSDTRYSPSFQGQVTISADKSISTAYLQWSSLKASDTAMYYCARHDYGMDVWGQGTTVTVSS
VL: QSVLTQPPSVSVSPGQTASITCSGDKLGDKFASWYQQKPGQSPVLVIYQDNKRPSRVPERFSGSNSGNTATLTISETQAMDEADYYCQAWVNNTVVFGGGTKVTVL
notes: full-length IgG
B8: anti-TrkB clone 5A07 (antibody, V domains shown)
VH: B7 VH with E1Q, T111M
VL: LPVLTQPPSASGTPGQRVTISCSGSRSNVGGNTVSWYQQLPGSAPKLLIYTNNQRPSGVPDRFSGSKSGTSASLAISGLQSEDEADYYCAAWDDSLNGYVFGTGTQLTVL
notes: full-length IgG
B9: anti-TrkB clone 3C12 (antibody, V domains shown)
VH: QVQLVQSGAEVKKPGESLKISCKGSGYSFTSYWIGWVRQMPGKGLEWMGIIYPGDSDTRYSPSFQGQVTISADKSISTAYLQWSSLKASDTAMYYCTRSSFNDHWGQGTLVTVSS
VL: QPVLTQPPSVSVSPGQTASITCSGDKLGNKFVSWFQQKPGQSPVLVIYQDTKRPSGIPERFSGSNSGSTATLTITGTQAMDDADYYCQAWNTNTALFGGGTKLTVL
notes: full-length IgG
B10: KiH.F5_TrkB × 1A09_CD3 (bispecific antibody)
scFv: not shown
VH: EVQLVQSGGGLVKPGGSLRLSCAASGFTFSSYSMNWVRQAPGKGLEWVSSISSSSSYIYYADSVKGRFTISRDNSKNTLYLQMNSLRAEDTAVYYCARVKDYDSSLDYWGQGTLVTVSS
VL: SYELMQPPSVSVSPGQTARITCSGFKLGDKYVSWYQQKPGQSPVLVIYQDSKRPSGIPERFSGSNSGNTATLTISGTQAMDEADYYCQAWDSSTVVFGGGTKLTVL
notes: scFv-knob-Fc (IgG1 T366W/S354C) + Fab-hole-Fc (T366S/L368A/Y407V/Y349C); also called F5×1A09; F5-1A09
B11: KiH.3H11_TrkB × 1A09_CD3 (bispecific antibody)
scFv: QVQLQQSGPGLVKPSQTLSLTCAISGDSVSSNSAVWNWIRQSPSRGLEWLGRTYYRSKWYTDFAVSVKSRITINPDTSKNQFSLQLNSVTPEDTAVYYCARGRNGMDVWGQGTMVTVSTSSGGGGSGGGGSGGSALLPVLTQPPSASGTPGQRVTISCSGSSSNIGHKYVYWYQQLPGAAPKLLIYRNNQRPSGVPDRFSASKSGTSASLAISGLRSEDEADYYCATWDDSLNGVVFGGGTKVTVL
VH: B10 VH
VL: B10 VL
notes: scFv-knob-Fc (IgG1 T366W/S354C) + Fab-hole-Fc (T366S/L368A/Y407V/Y349C); also called 3H11-1A09
B12: KiH.6E08_TrkB × 1A09_CD3 (bispecific antibody)
scFv: QVQLVQSGGGVVQPGRSLRLSCAASGFTFSSYAMHWVRQAPGKGLEWVAVISYDGSNKYYADSVKGRFTISRDNSKNTLYLQMNSLRAEDTAVYYCARAFRRYDAFDIWGQGTLVTVSSSSGGGGSGGGGSGGSALDIQMTQTPLSLSVTLGQPASISCRSSQGLVYSDGNTYLNWFQQRPGQSPRRLIYKVSNRDSGVPDRFSGSGSGTDFTLKISRVEAEDVGVYYCMQGTHWPPAFGQGTKVEIK
VH: B10 VH
VL: B10 VL
notes: scFv-knob-Fc (IgG1 T366W/S354C) + Fab-hole-Fc (T366S/L368A/Y407V/Y349C); also called 6E08-1A09
B13: KiH.F5_TrkB × 8A05_CD3 (bispecific antibody)
scFv: not shown
VH: QVQLQQSGGGLVQSGGSLRLSCAASGFSFGSSAMSWVRQAPGRGLEWVSGISHSGSTTYYADSVKGRFTISRDNSKNTLYLQMNSLRVEDTAVYYCAKIGAYGYYFHYWGQGTLVTVSS
VL: NFMLTQPHSVSESPGKTVTISCTRSGGSIASNYVQWYQQRPGSSPTTVIYDDNQRPSGVPDRFSGSIDSSSNSASLTISGLKTEDEADYYCQSSDNINHVIFGGGTKLTVL
notes: scFv-knob-Fc (IgG1 T366W/S354C) + Fab-hole-Fc (T366S/L368A/Y407V/Y349C); also called F5-8A05; F5_8A05
B14: KiH.3H11_TrkB × 3G07_CD3 (bispecific antibody)
scFv: B11 scFv
VH: B13 VH with S14P
VL: NFMLTQPHSLSESPGKTVTISCTRSSGSIASKYVQWYQQRPGSAPTTVIYDDKQRPSGVPDRFSGSFDSSSNSASLTISGLKTEDEADYYCQSFDSTNQAVVFGGGTKLTVL
notes: scFv-knob-Fc (IgG1 T366W/S354C) + Fab-hole-Fc (T366S/L368A/Y407V/Y349C); also called 3H11-3G07
B15: KiH.F5_TrkB × 3G07_CD3 (bispecific antibody)
scFv: not shown
VH: B13 VH with S14P
VL: B14 VL
notes: scFv-knob-Fc (IgG1 T366W/S354C) + Fab-hole-Fc (T366S/L368A/Y407V/Y349C); also called F5-3G07; F5_3G07
B16: KiH.3H11_TrkB × 8A05_CD3 (bispecific antibody)
scFv: B11 scFv
VH: B13 VH
VL: B13 VL
notes: scFv-knob-Fc (IgG1 T366W/S354C) + Fab-hole-Fc (T366S/L368A/Y407V/Y349C); also called 3H11-8A05

Target: human TrkC-His (human, UniProt Q16288 32-429)
Assay: ELISA

Row | Binder | binding result
1 | B1 | no binding (tested: up to 10 µg/mL)
2 | B2 | no binding (tested: up to 10 µg/mL)
3 | B3 | no binding (tested: up to 10 µg/mL)
4 | B4 | no binding (tested: up to 10 µg/mL)
5 | B5 | no binding (tested: up to 10 µg/mL)
6 | B6 | no binding (tested: up to 10 µg/mL)
7 | B7 | no binding (tested: up to 10 µg/mL)
8 | B8 | no binding (tested: up to 10 µg/mL)
9 | B9 | no binding (tested: up to 10 µg/mL)

Target: T1, human TrkB-His (human, UniProt Q16620 32-430)
T1 construct: in-house fusion of the TrkB ECD with poly-His, HEK293; also called huTrkB-His; hTrkB-His; not shown: poly-His tag
Assay: ELISA

Row | Binder | binding result
10 | B10 | binds
11 | B11 | binds
12 | B12 | binds
13 | B13 | binds
14 | B14 | binds
15 | B15 | binds
16 | B16 | binds

Target: human TrkA-His (human, UniProt P04629 33-417, limits assumed)
Assay: ELISA

human TrkA-His, sequence (P04629 33-417 limits assumed): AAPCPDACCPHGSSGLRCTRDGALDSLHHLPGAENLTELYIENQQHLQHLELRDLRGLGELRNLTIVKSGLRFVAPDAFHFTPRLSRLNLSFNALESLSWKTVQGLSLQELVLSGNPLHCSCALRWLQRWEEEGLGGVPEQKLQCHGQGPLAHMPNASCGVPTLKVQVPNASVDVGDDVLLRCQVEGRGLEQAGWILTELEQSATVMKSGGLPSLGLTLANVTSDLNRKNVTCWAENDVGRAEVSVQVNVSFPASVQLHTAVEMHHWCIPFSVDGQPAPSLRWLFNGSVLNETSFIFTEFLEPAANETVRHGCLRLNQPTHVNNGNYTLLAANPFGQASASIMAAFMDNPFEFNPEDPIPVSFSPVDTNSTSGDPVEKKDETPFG

Row | Binder | binding result
17 | B1 | no binding (tested: up to 10 µg/mL)
18 | B2 | no binding (tested: up to 10 µg/mL)
19 | B3 | no binding (tested: up to 10 µg/mL)
20 | B4 | no binding (tested: up to 10 µg/mL)
21 | B5 | no binding (tested: up to 10 µg/mL)
22 | B6 | no binding (tested: up to 10 µg/mL)
23 | B7 | no binding (tested: up to 10 µg/mL)
24 | B8 | no binding (tested: up to 10 µg/mL)
25 | B9 | no binding (tested: up to 10 µg/mL)

Target: T1, human TrkB-His
Assay: BLI off-rate, mAb captured

Row | Binder | koff [s⁻¹]
26 | B1 | 0.00687
27 | B2 | 0.00399
28 | B3 | 0.00491
29 | B4 | 0.00318
30 | B5 | 0.0113
31 | B6 | 0.011
32 | B7 | 0.00545
33 | B8 | 0.00544
34 | B9 | 0.000586

Target: T2, mouse TrkB-ECD-GST (mouse, UniProt P15209 32-429)
T2 construct: extracellular domain; in-house fusion, HEK293; also called mTrkB-ECD-GST; mTrkB (ELISA); not shown: glutathione S-transferase (GST) fusion part
Assay: ELISA

Row | Binder | binding result
35 | B1 | binds
36 | B2 | binds
37 | B3 | binds
38 | B4 | binds
39 | B5 | binds
40 | B6 | binds
41 | B7 | binds
42 | B8 | binds
43 | B9 | binds

Target: TrkB in PathHunter eXpress TrkB Functional Assay cells (modified U2OS)
Assay: cell-based or functional assay

Row | Binder | TrkB activation (EC50) [µg/mL]
44 | B1 | 0.11
45 | B2 | 0.036
46 | B3 | 0.08
47 | B4 | 0.047
48 | B5 | 0.12
49 | B6 | 0.51
50 | B7 | 0.07
51 | B8 | 0.13
52 | B9 | 0.018

Reference: patent US20260092121A1 (TALEM THERAPEUTICS, published 2026)
